Measurements as given in paper PMC8828063, “High-resolution mapping of metal ions reveals principles of surface layer assembly in Caulobacter crescentus cells” (Structure(London, England:1993), 2022).

Molecular target: the molecule itself
Assay: crystal structure; RsaA 30 mg/mL with 5 mM CaCl2; 0.07 M KSCN, 24% (w/v) PEG 8000, 0.075 M TAPS/NaOH pH 8.5, 19°C; stacked S-layer sheets in three-dimensional crystals; long-wavelength anomalous diffraction, molecular replacement with PDB 5N8P

B1: RsaA, S-layer protein of Caulobacter crescentus (wild type, full length) (natural protein, UniProt A0A0H3C8J1 1-1026, looked up)
chain: MAYTTAQLVTAYTNANLGKAPDAATTLTLDAYATQTQTGGLSDAAALTNTLKLVNSTTAVAIQTYQFFTGVAPSAAGLDFLVDSTTNTNDLNDAYYSKFAQENRFINFSINLATGAGAGATAFAAAYTGVSYAQTVATAYDKIIGNAVATAAGVDVAAAVAFLSRQANIDYLTAFVRANTPFTAAADIDLAVKAALIGTILNAATVSGIGGYATATAAMINDLSDGALSTDNAAGVNLFTAYPSSGVSGSTLSLTTGTDTLTGTANNDTFVAGEVAGAATLTVGDTLSGGAGTDVLNWVQAAAVTALPTGVTISGIETMNVTSGAAITLNTSSGVTGLTALNTNTSGAAQTVTAGAGQNLTATTAAQAANNVAVDGGANVTVASTGVTSGTTTVGANSAASGTVSVSVANSSTTTTGAIAVTGGTAVTVAQTAGNAVNTTLTQADVTVTGNSSTTAVTVTQTAAATAGATVAGRVNGAVTITDSAAASATTAGKIATVTLGSFGAATIDSSALTTVNLSGTGTSLGIGRGALTATPTANTLTLNVNGLTTTGAITDSEAAADDGFTTINIAGSTASSTIASLVAADATTLNISGDARVTITSHTAAALTGITVTNSVGATLGAELATGLVFTGGAGADSILLGATTKAIVMGAGDDTVTVSSATLGAGGSVNGGDGTDVLVANVNGSSFSADPAFGGFETLRVAGAAAQGSHNANGFTALQLGATAGATTFTNVAVNVGLTVLAAPTGTTTVTLANATGTSDVFNLTLSSSAALAAGTVALAGVETVNIAATDTNTTAHVDTLTLQATSAKSIVVTGNAGLNLTNTGNTAVTSFDASAVTGTGSAVTFVSANTTVGEVVTIRGGAGADSLTGSATANDTIIGGAGADTLVYTGGTDTFTGGTGADIFDINAIGTSTAFVTITDAAVGDKLDLVGISTNGAIADGAFGAAVTLGAAATLAQYLDAAAAGDGSGTSVAKWFQFGGDTYVVVDSSAGATFVSGADAVIKLTGLVTLTTSAFATEVLTLA
notes: RsaA, S-layer protein of Caulobacter crescentus CB15N (NA1000), 1,026 amino acid residues; RsaANTD is residues 1-250 and RsaACTD residues 251-1,026; Full-length protein went into crystallisation; also called SLP; wild-type RsaA; source: purified from C. crescentus CB15N (NA1000) cells by low pH exposure (HiTrap SP flow-through, HiTrap Q)
For B1, the “stoichiometry N” value was 6.
